Here are results for one molecule from patent publication US20050037477A1 (BOARD OF REGENTS OF THE UNIVERSITY OF OKLAHOMA, published 2005).

For this test, the target named is T1, human C-terminal HPC-4 epitope-tagged C1β3Gal-T (core 1 β3-galactosyltransferase), full-length (human, UniProt Q9NS00 1-363).
T1 construct: mature; also called HPC4-tagged C1β3Gal-T; recombinant C1β3Gal-T
The experiment in a line: Ni-NTA capture of His6-tagged wtCosmc-1 from Hi-5 and 293T cell extracts, C1β3Gal-T activity on the beads. How it is done: Capture of Human Cosmc-1 on Ni-NTA-Superflow-The Ni-NTA-Superflow beads (100 ml) (Qiagen, Inc.) equilibrated with the Ni-NTA washing buffer containing 50 mM NaH₂PO₄, 300 mM NaCl, 20 mM imidazole, 0.1% Triton X-100 (pH 7.8) were incubated with the cell extracts overnight at 4° C. on a rotator. The beads were washed 5 times with 1 ml of the washing buffer. One portion of the beads was removed for C1β3Gal-T enzyme assay. The bound material in the other portion was eluted with 100 ml of eluting solution (50 mM NaH₂PO₄, 300 mM NaCl, 250 mM imidazole, and 0.1% Triton X-100).
To confirm that Cosmc-1 and C1β3Gal-T can associate, we performed Western Blots on the HPC4-tagged C1β3Gal-T expressed in Hi5 cells and 293T cells with or without His₆-tagged wtCosmc-1 or mCosmc-1. When HPC4-tagged C1β3Gal-T was expressed in Hi5 cells in the absence or presence of wtCosmc-1 or mCosmc-1, a considerable amount protein was generated (FIG. 2G), but the enzyme lacked activity except when co-expressed with wtCosmc-1 (FIG. 2A-C). More importantly, HPC4-tagged C1β3Gal-T was present with His₆-tagged wtCosmc-1 when the latter was captured on Ni-NTA (FIGS. 2G,H). […] There was a slight amount of HPC4-tagged C1β3Gal-T detected in the Ni-NTA bound material in the absence of His₆-tagged wtCosmc-1 in 293T cells (FIG. 2H). […]

T1 sequence (Q9NS00 other isoform, or with tags, fused parts or gaps): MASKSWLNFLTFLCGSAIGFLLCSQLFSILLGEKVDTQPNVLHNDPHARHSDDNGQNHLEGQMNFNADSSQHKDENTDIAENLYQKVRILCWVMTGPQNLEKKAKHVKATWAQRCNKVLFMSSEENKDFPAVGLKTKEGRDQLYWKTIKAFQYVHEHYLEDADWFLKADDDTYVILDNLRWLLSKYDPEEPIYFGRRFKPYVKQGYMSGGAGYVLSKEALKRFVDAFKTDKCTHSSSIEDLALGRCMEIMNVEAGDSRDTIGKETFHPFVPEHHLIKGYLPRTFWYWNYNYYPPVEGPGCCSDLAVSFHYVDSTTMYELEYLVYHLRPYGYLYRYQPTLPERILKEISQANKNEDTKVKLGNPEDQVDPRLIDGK

B1: human C-terminal His6-tagged Cosmc-1 (wild-type; Core 1 β3-Gal-T Specific Molecular Chaperone-1) (other)
chain: MLSESSSFLKGVMLGSIFCALITMLGHIRIGHGNRMHHHEHHHLQAPNKEDILKISEDERMELSKSFRVYCIILVKPKDVSLWAAVKETWTKHCDKAEFFSSENVKVFESINMDTNDMWLMMRKAYKYAFDKYRDQYNWFFLARPTTFAIIENLKYFLLKKDPSQPFYLGHTIKSGDLEYVGMEGGIVLSVESMKRLNSLLNIPEKCPEQGGMIWKISEDKQLAVCLKYAGVFAENAEDADGKDVFNTKSVGLSIKEAMTYHPNQVVEGCCSDMAVTFNGLTPNQMHVMMYGVYRLRAFGHIFNDALVFLPPNGSDNDHHHHHH
notes: Co-expressed with C1β3Gal-T in Hi-5 insect cells or 293T cells and captured from Triton X-100 cell extracts on Ni-NTA; also called wtCosmc-1; wt-Cosmc-1
Consider B1, for which the binding result was “binds”.
